± gives the uncertainty stated by the source.
B1: Double-stranded RNA-binding protein Staufen homolog 1, residues 183 to 249; numbered along this chain, O95793 (parent)
chain: KSEISQVFEIALKRNLPVNFEVARESGPPHMKNFVTKVSVGEFVGEGEGKSKKISKKNAAIAVLEEL
B2: Far upstream element-binding protein 2, residues 142 to 214; numbered along this chain, Q92945 (parent)
chain: RTSMTEEYRVPDGMVGLIIGRGGEQINKIQQDSGCKVQISPDSGGLPERSVSLTGAPESVQKAKMMLDDIVSR

Variants of: B1
Experiment: abundance fitness (aPCA) (normalised: wild type 0, dead -1); higher = more abundant; growth selection in yeast, the domain comes from the species named
Conditions: Homo sapiens
With E65I the abundance fitness was -0.573 ± 0.14.
With E65P the abundance fitness was -0.386 ± 0.054.
V40R showed an abundance fitness of -0.811 ± 0.063.
V40G gave an abundance fitness of -0.681 ± 0.062.
In the case of S55D, the abundance fitness is reported as -0.918 ± 0.096.
I4A gave an abundance fitness of -0.705 ± 0.064.
Work on I4W yielded an abundance fitness of -0.359 ± 0.051.
Work on A60T yielded an abundance fitness of -0.466 ± 0.049.
S2C gave an abundance fitness of -0.482 ± 0.11.
In the case of L12H, the abundance fitness is reported as -0.032 ± 0.34.
With V18T the abundance fitness was -0.784 ± 0.1.
Work on K52P yielded an abundance fitness of -0.179 ± 0.052.
V22K showed an abundance fitness of 0.105 ± 0.061.
Variant E3R has an abundance fitness of -0.551 ± 0.047.
Work on P29A yielded an abundance fitness of -0.005 ± 0.045.
For P29G, the abundance fitness was 0.052 ± 0.043.
In the case of F8R, the abundance fitness is reported as -0.129 ± 0.033.
F8H showed an abundance fitness of -0.012 ± 0.074.
With E66K the abundance fitness was 0.216 ± 0.056.
Work on I54Q yielded an abundance fitness of -0.052 ± 0.042.
T36C gave an abundance fitness of 0.046 ± 0.073.
G49W showed an abundance fitness of -1.14 ± 0.11.
In the case of G49L, the abundance fitness is reported as -0.802 ± 0.045.
In the case of G49I, the abundance fitness is reported as -0.791 ± 0.094.
L67Q showed an abundance fitness of -0.423 ± 0.076.
R24A gave an abundance fitness of -0.132 ± 0.047.
In the case of R24Q, the abundance fitness is reported as -0.085 ± 0.042.
With A59Y the abundance fitness was -1.16 ± 0.34.
In the case of A59F, the abundance fitness is reported as -0.911 ± 0.21.
N33L gave an abundance fitness of -0.072 ± 0.041.
E42M showed an abundance fitness of -0.1 ± 0.061.
E42D gave an abundance fitness of -0.137 ± 0.093.
In the case of E42I, the abundance fitness is reported as -0.407 ± 0.11.
E48D showed an abundance fitness of -0.427 ± 0.1.
Variant S51G has an abundance fitness of -0.791 ± 0.09.
Variant S51Y has an abundance fitness of -0.657 ± 0.087.
Variant I61Y has an abundance fitness of -0.478 ± 0.085.
With F20C the abundance fitness was -0.361 ± 0.088.
E25I gave an abundance fitness of -0.141 ± 0.063.
For V35R, the abundance fitness was 0.04 ± 0.037.
Work on V35L yielded an abundance fitness of -0.021 ± 0.04.
With K37E the abundance fitness was -0.553 ± 0.099.
K37C showed an abundance fitness of -0.251 ± 0.23.
For K56A, the abundance fitness was -0.457 ± 0.069.
Work on K32L yielded an abundance fitness of -0.179 ± 0.044.
With K32I the abundance fitness was -0.178 ± 0.1.
K13G gave an abundance fitness of -0.308 ± 0.043.
P28Q showed an abundance fitness of -0.202 ± 0.063.
In the case of P28I, the abundance fitness is reported as -0.322 ± 0.067.
In the case of N19K, the abundance fitness is reported as 0.082 ± 0.061.
Work on V44T yielded an abundance fitness of -0.015 ± 0.061.
V44Q gave an abundance fitness of -0.074 ± 0.059.

Variants of: B2
Experiment: as above
Conditions: Homo sapiens
D12R gave an abundance fitness of 0.088 ± 0.043.
D12F gave an abundance fitness of -0.153 ± 0.075.
With D12V the abundance fitness was -0.097 ± 0.046.
Work on D12N yielded an abundance fitness of -0.14 ± 0.079.
Variant S59P has an abundance fitness of -0.769 ± 0.058.
With S59Y the abundance fitness was -0.727 ± 0.092.
Work on S59A yielded an abundance fitness of 0.008 ± 0.043.
In the case of S59W, the abundance fitness is reported as -0.968 ± 0.084.
Variant Q38T has an abundance fitness of 0.033 ± 0.053.
For Q38P, the abundance fitness was -0.831 ± 0.069.
Q38Y showed an abundance fitness of 0.027 ± 0.097.
Variant Q38R has an abundance fitness of -0.028 ± 0.039.
Variant Q38H has an abundance fitness of 0.095 ± 0.078.
For Q38V, the abundance fitness was -0.001 ± 0.048.
Work on Q38F yielded an abundance fitness of -0.075 ± 0.12.
P11E showed an abundance fitness of -0.193 ± 0.056.
For P11M, the abundance fitness was -0.375 ± 0.064.
In the case of P11T, the abundance fitness is reported as -0.158 ± 0.056.
Variant P11K has an abundance fitness of -0.178 ± 0.06.
Work on S72R yielded an abundance fitness of 0.052 ± 0.039.
S72N gave an abundance fitness of 0.026 ± 0.076.
For S72M, the abundance fitness was -0.024 ± 0.06.
S72H gave an abundance fitness of 0.019 ± 0.066.
Work on E58A yielded an abundance fitness of -0.088 ± 0.05.
With E58H the abundance fitness was -0.071 ± 0.087.
With E58R the abundance fitness was -0.198 ± 0.039.
With K36A the abundance fitness was -0.082 ± 0.045.
In the case of K36H, the abundance fitness is reported as -0.06 ± 0.074.
K36Q showed an abundance fitness of -0.034 ± 0.059.
K36E showed an abundance fitness of -0.036 ± 0.051.
With K36D the abundance fitness was 0.021 ± 0.067.
Work on K36N yielded an abundance fitness of 0.073 ± 0.086.
Work on K36Y yielded an abundance fitness of -0.047 ± 0.11.
K36W showed an abundance fitness of -0.283 ± 0.051.
Variant M4G has an abundance fitness of -0.431 ± 0.038.
M4D showed an abundance fitness of -0.106 ± 0.072.
In the case of M4I, the abundance fitness is reported as -0.096 ± 0.11.
Variant M4C has an abundance fitness of 0.045 ± 0.062.
Variant M4S has an abundance fitness of -0.072 ± 0.046.
In the case of M4H, the abundance fitness is reported as -0.107 ± 0.065.
With E7S the abundance fitness was -0.088 ± 0.04.
For E7L, the abundance fitness was 0.021 ± 0.04.
P41S gave an abundance fitness of -0.017 ± 0.049.
P41R showed an abundance fitness of -0.061 ± 0.043.
P41F gave an abundance fitness of -0.122 ± 0.095.
In the case of P41M, the abundance fitness is reported as -0.09 ± 0.067.
With R21V the abundance fitness was -0.068 ± 0.037.
With R21W the abundance fitness was -0.353 ± 0.045.
Variant R21N has an abundance fitness of 0.074 ± 0.069.
Work on R21D yielded an abundance fitness of 0.133 ± 0.055.
Work on R21A yielded an abundance fitness of 0.026 ± 0.039.
Work on R21L yielded an abundance fitness of 0.042 ± 0.037.
Work on R21Y yielded an abundance fitness of -0.148 ± 0.06.
R21S showed an abundance fitness of 0.02 ± 0.039.
In the case of R1Q, the abundance fitness is reported as 0.036 ± 0.11.
Variant R1N has an abundance fitness of 0.101 ± 0.081.
Variant R1G has an abundance fitness of -0.071 ± 0.037.
In the case of D32Y, the abundance fitness is reported as -0.167 ± 0.11.
Variant D32G has an abundance fitness of -0.156 ± 0.044.
L67T showed an abundance fitness of -0.562 ± 0.059.
L67F showed an abundance fitness of -0.41 ± 0.072.
For L67H, the abundance fitness was -0.564 ± 0.084.
L67S showed an abundance fitness of -0.553 ± 0.048.
Work on A56K yielded an abundance fitness of -0.153 ± 0.075.
Work on A56R yielded an abundance fitness of 0.012 ± 0.041.
Variant A56Y has an abundance fitness of -0.091 ± 0.095.
For A56V, the abundance fitness was -0.099 ± 0.051.
In the case of A56W, the abundance fitness is reported as -0.281 ± 0.057.
In the case of A56H, the abundance fitness is reported as 0.026 ± 0.081.
I39E showed an abundance fitness of -0.728 ± 0.076.
I39P showed an abundance fitness of -0.477 ± 0.052.
For I39R, the abundance fitness was -0.645 ± 0.044.
Variant R9Y has an abundance fitness of 0.025 ± 0.066.
Work on R9A yielded an abundance fitness of -0.145 ± 0.04.
In the case of R9T, the abundance fitness is reported as 0.053 ± 0.05.
For I18G, the abundance fitness was -0.363 ± 0.037.
Variant I18F has an abundance fitness of -0.122 ± 0.071.
I18A gave an abundance fitness of -0.276 ± 0.042.
I18S showed an abundance fitness of -0.398 ± 0.046.
For M65R, the abundance fitness was -0.023 ± 0.037.
Variant R73G has an abundance fitness of 0.177 ± 0.043.
For K64T, the abundance fitness was -0.445 ± 0.058.
In the case of K64M, the abundance fitness is reported as -0.457 ± 0.062.
Work on A63G yielded an abundance fitness of -0.447 ± 0.044.
A63C gave an abundance fitness of -0.222 ± 0.082.
T54H showed an abundance fitness of -0.076 ± 0.077.
Work on T54N yielded an abundance fitness of -0.327 ± 0.088.
For T54W, the abundance fitness was -0.393 ± 0.061.
For T54P, the abundance fitness was -0.855 ± 0.057.
With I26S the abundance fitness was -0.693 ± 0.055.
With I26V the abundance fitness was -0.146 ± 0.05.
In the case of I26A, the abundance fitness is reported as -0.394 ± 0.048.
I26R showed an abundance fitness of -0.533 ± 0.039.
Variant I26M has an abundance fitness of -0.054 ± 0.086.
With I26Y the abundance fitness was -0.769 ± 0.23.
I26D gave an abundance fitness of -0.549 ± 0.082.
For M14Y, the abundance fitness was -0.19 ± 0.073.
Variant M14A has an abundance fitness of -0.111 ± 0.042.
M14E showed an abundance fitness of -0.208 ± 0.047.
Work on E24R yielded an abundance fitness of -0.03 ± 0.04.
With E24A the abundance fitness was -0.112 ± 0.045.
Variant E24K has an abundance fitness of -0.078 ± 0.058.
E24W gave an abundance fitness of 0.666 ± 0.048.
Work on E24H yielded an abundance fitness of -0.019 ± 0.09.
E24D showed an abundance fitness of -0.104 ± 0.067.
With E24V the abundance fitness was -0.092 ± 0.042.
Work on E24T yielded an abundance fitness of -0.071 ± 0.058.
G34N gave an abundance fitness of -0.219 ± 0.1.
Variant G34C has an abundance fitness of -0.356 ± 0.077.
In the case of G34A, the abundance fitness is reported as -0.365 ± 0.049.
Variant G34K has an abundance fitness of -0.319 ± 0.068.
In the case of G34L, the abundance fitness is reported as -0.396 ± 0.057.
With I70E the abundance fitness was -0.416 ± 0.055.
In the case of I70K, the abundance fitness is reported as -0.395 ± 0.062.
With I70F the abundance fitness was -0.235 ± 0.076.
